Measurements reported in patent publication US20120324606A1.

How the values were obtained:
[1] = target: BBMV proteins (receptor binding sites) in brush border membrane vesicles from fall armyworm (FAW; Spodoptera frugiperda) larval midgut; test: homologous competition: unlabeled Cry1Be against 0.5 nM 125I Cry1Be on FAW BBMVs
[2] = target: BBMV proteins (receptor binding sites) in brush border membrane vesicles from fall armyworm (FAW; Spodoptera frugiperda) larval midgut; test: heterologous competition: unlabeled Cry1Be against 0.5 nM 125I Cry1Ab on FAW BBMVs; reference is homologous Cry1Ab
[3] = target: BBMV proteins (receptor binding sites) in brush border membrane vesicles from European corn borer (ECB; Ostrinia nubilalis) larval midgut; test: heterologous competition: unlabeled Cry1Be against 0.5 nM 125I Cry1Ab on ECB BBMVs; reference is homologous Cry1Ab
[4] = target: BBMV proteins (receptor binding sites) in brush border membrane vesicles from European corn borer (ECB; Ostrinia nubilalis) larval midgut; test: heterologous competition: unlabeled Cry1Be against 0.5 nM 125I Cry1Ab on ECB BBMVs
[5] = target: BBMV proteins (receptor binding sites) in brush border membrane vesicles from fall armyworm (FAW; Spodoptera frugiperda) larval midgut; test: heterologous competition: unlabeled Cry1Be against 0.5 nM 125I Cry1Ab on FAW BBMVs

B1: Cry1Be insecticidal protein (purified truncated Cry toxin) (ligand)
chain: IEDSLCIAEGNNIDPFVSASTVQTGINIAGRILGVLGVPFAGQIASFYSFLVGELWPRGRDPWEIFLEHVEQLIRQQVTENTRDTALARLQGLGNSFRAYQQSLEDWLENRDDARTRSVLYTQYIALELDFLNAMPLFAIRNQEVPLLMVYAQAANLHLLLLRDASLFGSEFGLTSQEIQRYYERQVEKTREYSDYCARWYNTGLNNLRGTNAESWLRYNQFRRDLTLGVLDLVALFPSYDTRVYPMNTSAQLTREIYTDPIGRTNAPSGFASTNWFNNNAPSFSAIEAAVIRPPHLLDFPEQLTIFSVLSRWSNTQYMNYWVGHRLESRTIRGSLSTSTHGNTNTSINPVTLQFTSRDVYRTESFAGINILLTTPVNGVPWARFNWRNPLNSLRGSLLYTIGYTGVGTQLFDSETELPPETTERPNYESYSHRLSNIRLISGNTLRAPVYSWTHRSADRTNTISSDSITQIPLVKSFNLNSGTSVVSGPGFTGGDIIRTNVNGSVLSMGLNFNNTSLQRYRVRVRYAASQTMVLRVTVGGSTTFDQGFPSTMSANESLTSQSFRFAEFPVGISASGSQTAGISISNNAGRQTFHFDKIEFIPITAT
modifications: ^125I iodination (Iodo-Beads) in the radiolabeled form only; sites not stated
With B1 the IC50 [1] was 2 nM, the fold greater concentration for 50% displacement, against Cry1Ab [2] was 1000 fold and the fold higher concentration for 50% displacement, against Cry1Ab [3] was 80 fold. It also gave an IC50 [4] of 40 nM and an IC50 [5] of 300 nM.
